Assay results published in patent publication US20130244255A1, “ANTIBODIES DIRECTED TO GPNMB AND USES THEREOF” (priority 2006, published 2013).
Blank lines part the entries; values can stand above or below the molecule they belong to.

Assays:
GPNMB [1] = biological target: T1, GPNMB (Homo sapiens, UniProt Q14956); assay: Binning of antibodies (Luminex competitive binding); conditions: three bins of six anti-GPNMB antibodies
T1 construct: we cloned the human CG56972 extracellular domain (ECD; aa 23-480); made in house; host or cells: HEK 293 cells
T1 sequence (Q14956 23-492): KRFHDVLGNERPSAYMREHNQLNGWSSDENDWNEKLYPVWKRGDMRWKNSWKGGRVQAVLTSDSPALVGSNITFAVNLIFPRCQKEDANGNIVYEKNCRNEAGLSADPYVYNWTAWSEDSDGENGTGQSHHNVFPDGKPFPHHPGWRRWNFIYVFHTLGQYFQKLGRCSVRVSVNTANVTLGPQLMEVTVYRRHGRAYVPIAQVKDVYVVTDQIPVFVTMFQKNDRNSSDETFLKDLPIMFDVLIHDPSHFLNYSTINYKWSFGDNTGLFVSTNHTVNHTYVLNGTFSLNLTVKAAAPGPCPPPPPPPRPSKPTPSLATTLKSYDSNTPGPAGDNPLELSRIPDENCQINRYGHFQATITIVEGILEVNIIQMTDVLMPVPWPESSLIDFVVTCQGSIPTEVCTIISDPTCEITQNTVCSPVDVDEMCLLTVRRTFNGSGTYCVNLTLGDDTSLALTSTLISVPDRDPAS
Method: Certain antibodies, described herein were binned in accordance with the protocol described in U.S. Patent Application Publication No. 20030157730. M×hIgG conjugated beads are prepared for coupling to primary antibody. The volume of supernatant needed is calculated using the following formula: (n+10)×50 μL (where n=total number of samples on plate). Where the concentration is known, 0.5 μg/mL is used. Bead stock is gently vortexed, then diluted in supernatant to a concentration of 2500 of each bead per well or 0.5×10^5/mL and incubated on a shaker in the dark at RT overnight, or 2 hours if at a known concentration of 0.5 μg/mL. Following aspiration, 50 μL of each bead is added to each well of filter plate, then washed once by adding 100 μL/well wash buffer and aspirating. Antigen and controls are added to filter plate 50 μL/well then covered and allowed to incubate in the dark for 1 hour on shaker. Following a wash step, a secondary unknown antibody is added at 50 μL/well using the same dilution (or concentration if known) as is used for the primary antibody. The plates are then incubated in the dark for 2 hours at RT on shaker followed by a wash step. Next, 50 μL/well biotinylated m×hIgG diluted 1:500 is added and allowed to incubate in the dark for 1 hour on shaker at RT. […] Following a wash step, each well is resuspended in 80 μL blocking buffer and read using Luminex. […]

GPNMB [2] = biological target: T2, GPNMB (Homo sapiens, UniProt Q14956); assay: GPNMB immunohistochemistry (IHC) on human tissue microarrays; type: binding; conditions: normal and tumor human tissue microarrays (lung, ovarian, renal, esophagus, head & neck carcinomas, squamous cell carcinoma, melanomas, normal skin)
T2 construct: Tissue sections (5 μm) were cut from formalin fixed and paraffin embedded tissue samples; tissue IMPATH, Los Angeles, Calif; host or cells: normal and tumor human tissue microarrays (melanoma, lung and other carcinomas, skin)
T2 sequence (Q14956 23-572): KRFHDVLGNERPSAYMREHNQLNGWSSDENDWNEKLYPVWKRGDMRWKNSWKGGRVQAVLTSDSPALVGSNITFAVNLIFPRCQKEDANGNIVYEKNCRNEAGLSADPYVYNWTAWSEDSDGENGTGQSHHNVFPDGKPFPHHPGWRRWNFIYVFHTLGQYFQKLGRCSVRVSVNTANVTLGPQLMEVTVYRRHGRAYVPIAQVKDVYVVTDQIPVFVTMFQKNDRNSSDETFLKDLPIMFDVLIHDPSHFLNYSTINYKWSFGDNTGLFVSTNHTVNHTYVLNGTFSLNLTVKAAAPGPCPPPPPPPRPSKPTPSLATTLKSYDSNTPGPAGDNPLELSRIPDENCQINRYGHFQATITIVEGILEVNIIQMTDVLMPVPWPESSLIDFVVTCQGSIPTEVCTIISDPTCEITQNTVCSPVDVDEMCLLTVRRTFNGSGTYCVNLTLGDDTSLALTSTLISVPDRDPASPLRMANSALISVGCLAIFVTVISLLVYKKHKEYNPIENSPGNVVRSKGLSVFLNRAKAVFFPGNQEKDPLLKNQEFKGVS
Method: Anti-GPNMB monoclonal antibodies were evaluated for reactivity with frozen and fixed tissue specimens. Tissue sections (5 μm) were cut from formalin fixed and paraffin embedded tissue samples and were rehydrated through incubations in xylene and a graded ethanol series terminating in PBS. Endogenous peroxidase activity was quenched in a 3% solution of hydrogen peroxide in methanol
Tissue sections were blocked in blocking buffer (5% BSA (Sigma), 1% goat serum (Jackson Immunolabs, West Grove, Pa.) in PBS) for 1 hour. Primary and secondary antibodies were precomplexed in 5% BSA and 1% goat serum in PBS for 1 hour at 37° C. at a molar ratio of approximately 10:1 of anti-GPNMB or control IgG to secondary biotinylated goat anti-human IgG (Jackson Immunolabs). Complexes were blocked with a 1:2000 dilution of human serum and incubated again for 1 hour at 37° C. Tissue sections were incubated with anti-GPNMB antibody or isotype control antibody complexes diluted in blocking buffer for 1 hour. Sections were washed in 3 changes of PBS for 5 to 10 minutes each and incubated with a 1:200 dilution of streptavidin conjugated horseradish peroxidase (Jackson Immunolabs) in blocking buffer for 30 minutes and then washed as before. Antibody was detected using DAB reagent (Vector labs). […]

[3] = biological target: T3, cell membrane-bound GPNMB protein (Homo sapiens, UniProt Q14956); assay: FACS analysis of anti-GPNMB antibody binding to melanoma cell lines; conditions: primary antibody 1 μg/mL
T3 construct: endogenous in cells; host or cells: UACC-62 and a panel of melanoma lines (A5)
T3 sequence (Q14956 23-572): T2 sequence (Q14956 23-572)

GPNMB [4] = biological target: T1, GPNMB; assay: BiaCore 2000 analysis of hybridoma supernatants binding to GPNMB; conditions: mAb captured on protein A; GPNMB at 880 nM; 1:1 kinetic model
Method: Certain Hybridoma cell supernatants (29) were analyzed for binding to GPNMB by BiaCore® 2000 biosensor equipped with a research-grade CM5 sensor chip. A 1:25 dilution of cell supernatant was passed over a protein A surface for 5 min followed by washing the surface for 10 mins. Subsequently, GPNMB was injected for 90 sec. over the surface at a concentration of 880 nM followed by dissociation. Double-referenced binding data were obtained by subtracting the signal from a control flow cell and subtracting the baseline drift of a buffer injected just prior to the antigen injection. GPNMB binding data for each mAb was normalized for the amount of mAb captured on each surface. Normalized, drift corrected responses were also measured. The sensorgrams were fit to a simple 1:1 kinetic model.

GPNMB [5] = biological target: T1, GPNMB; assay: ELISA of hybridoma supernatants for binding to GPNMB
Method: After 14 days of culture, hybridoma supernatants were screened for GPNMB specific monoclonal antibodies. In the Primary screen, the ELISA plates (Fisher, Cat. No. 12-565-136) were coated with 50 μL/well of GPNMB (1 μg/mL) in Coating Buffer (0.1 M Carbonate Buffer, pH 9.6, NaHCO3 8.4 g/L), then incubated at 4° C. overnight. After incubation, the plates were washed with Washing Buffer (0.05% Tween 20 in PBS) three times. 200 μL/well Blocking Buffer (0.5% BSA, 0.1% Tween 20, 0.01% Thimerosal in 1×PBS) were added and the plates were incubated at room temperature for 1 h. After incubation, the plates were washed with Washing Buffer three times. Aliquots (50 μL/well) of hybridoma supernatants and positive and negative controls were added, and the plates were incubated at room temperature for 2 h. The positive control used throughout was serum from the relevant GPNMB immunized XenoMouse® mouse and the negative control was serum from the KLH-immunized relevant strain of XenoMouse® mouse. After incubation, the plates were washed three times with Washing Buffer. 100 μL/well of detection antibody goat anti-huIgGfc-HRP (Caltag, Cat. No. H10507, using concentration was 1:2000 dilution) was added and the plates were incubated at room temperature for 1 hour. After incubation, the plates were washed three times with Washing Buffer. 100 μl/well of TMB (BioFX Lab. Cat. No. TMSK-0100-01) was added, and the plates were allowed to develop for about 10 minutes (until negative control wells barely started to show color). 50 μl/well stop solution (TMB Stop Solution (BioFX Lab. Cat. No. STPR-0100-01) was then added and the plates were read on an ELISA plate reader at a wavelength of 450 nm.
Hybridoma supernatants were screened for binding to GPNMB by ELISA as described above in Example 2.

[6] = TK10 Cells (GPNMB negative control)

- ka (GPNMB [4]): 3955 M⁻¹ s⁻¹
- kd (GPNMB [4]): 0.000466 s⁻¹
B3: 1.10.2: human anti-GPNMB antibody; VH SEQ ID NO: 2, VL SEQ ID NO: 11 (antibody, listed as Homo sapiens, V domains shown)
VH: QVQLQESGPGLVKPSETLSLTCTVSGDSISNYYWSWIRQPPGKGLEWIGYFYYSGSTNYNPSLKSRVTISVDTSKNQFSLKLSSVTAADTAVYYCARDRGWADYWGQGTLVTVSSA
VL: EIVLTQSPGTLSLSPGERATLSCRTSQSISSSYLAWYQQKPGQVPRLLIYGASSRATGIPDRFSGSGSGTDFTLTISRLEPEDFAVYYCQQYGSSITFGQGTRLEIKR

- Avg OD (GPNMB [5]; antibody at 12.3 ng/mL): 0.049
- Avg OD (GPNMB [5]; antibody at 37 ng/mL): 0.094
- Avg OD (GPNMB [5]; antibody at 111 ng/mL): 0.199
- Avg OD (GPNMB [5]; antibody at 333 ng/mL): 0.356
- Avg OD (GPNMB [5]; antibody at 1 μg/mL): 0.499
- Avg OD (GPNMB [5]; antibody at 3 μg/mL): 0.763
- ka (GPNMB [4]): 9257 M⁻¹ s⁻¹
- kd (GPNMB [4]): 0.00089 s⁻¹
- Geo Mean Ratio of anti-GPNMB Staining (relative to pK16) [3, 6]: L. 0.98
- Geo Mean Ratio of anti-GPNMB Staining (relative to pK16) ([3]; UACC-62 Cells): K. 1.24
B4: 1.2.2: human anti-GPNMB antibody; VH SEQ ID NO: 38, VL SEQ ID NO: 47 (antibody, listed as Homo sapiens, V domains shown)
VH: ITLKESGPTLVKPTQTLTLTCTFSGFSLSAGGVGVGWIRQPPGKALEWLALIYWNDDKRYSPSLRSRLTITKDTSKNQVVLTITNMDPVDTATYYCAHSHYDYDWGSYFDYWGQGTLVTVSSA
VL: DIVMTQTPLSLPVTPGEPASISCRSSQSLLDSDDGNTYLDWYLQKPGQSPQLLIYTLSYRASGVPDRFSGSGSGTDFTLNISRVEAEDVGVYYCMQRIEFPITFGQGTRLEIKR

More lines, now with the values behind:

B1: 2.22.1: human anti-GPNMB antibody; VH SEQ ID NO: 164, VL SEQ ID NO: 173 (antibody, listed as Homo sapiens, V domains shown)
VH: QVQLEQSGPGLVKPSQNLSLTCTVSGGSISSGGYFWSWIRQHPGKGLEWIGYIYYSGNTYYNPSLKSRVTISVDTSKNQFSLKLSSVTAADTAVYYCARDYYYDTSGFSYRYDWYYGMDVWGQGTTVTVSSA
VL: DIQLTQSPSSLSASVGDRVTITCRASQGIRNDLGWYQQKPGKAPKRLIYAASSLQNGVPSRFSGSGSGTEFTLTISSLQPEDFATYYCLQHNTYPAFGQGTKVEIKR
- bin (GPNMB [1]): Bin 1
- IHC staining (GPNMB [2]): Positive staining
- Geo Mean Ratio of anti-GPNMB Staining (relative to pK16) [3, 6]: I. 1.10
- Geo Mean Ratio of anti-GPNMB Staining (relative to pK16) ([3]; UACC-62 Cells): H. 4.46

B2: 1.7.1: human anti-GPNMB antibody; VH SEQ ID NO: 56, VL SEQ ID NO: 65 (antibody, listed as Homo sapiens, V domains shown)
VH: QVQLQESGPGLVKPSQTLSLTCTVSGGSISSANYYWTWIRQHPGKGLEWIGYIYYSGSTYCNPSLKSRVIISVDTSKNQFSLKLSSVTAADTAVYYCARGYNWNYFDYWGQGTLVTVSSA
VL: DIVMTQSPATLSVSPGERATLSCRASQSVSSNLAWYQERPGQAPRLLIYGASTRATGIPARFSGSGSGTEFTLTISSLQSEDFAVYYCQQYNKWPPWTFGQGTKVEIER
- ka (GPNMB [4]): 11842 M⁻¹ s⁻¹
- kd (GPNMB [4]): 0.00144 s⁻¹
